Data: the supplement of paper PMC10065799, “High-throughput profiling of sequence recognition by tyrosine kinases and SH2 domains using bacterial peptide display” (eLife, 2023)

Experiments:
AncSZ = test: phosphorylation enrichment, bacterial display (enrichment ratio); higher = better substrate or ligand; peptides without Tyr show the background
EPHB1 = EPHB1 (UniProt P54762); test: as above
EPHB2 = EPHB2 (UniProt P29323); test: as above
FGFR1 = FGFR1 (UniProt P11362); test: as above
FGFR3 = FGFR3 (UniProt P22607); test: as above
FGFR3, sequence (P22607 whole entry, looked up): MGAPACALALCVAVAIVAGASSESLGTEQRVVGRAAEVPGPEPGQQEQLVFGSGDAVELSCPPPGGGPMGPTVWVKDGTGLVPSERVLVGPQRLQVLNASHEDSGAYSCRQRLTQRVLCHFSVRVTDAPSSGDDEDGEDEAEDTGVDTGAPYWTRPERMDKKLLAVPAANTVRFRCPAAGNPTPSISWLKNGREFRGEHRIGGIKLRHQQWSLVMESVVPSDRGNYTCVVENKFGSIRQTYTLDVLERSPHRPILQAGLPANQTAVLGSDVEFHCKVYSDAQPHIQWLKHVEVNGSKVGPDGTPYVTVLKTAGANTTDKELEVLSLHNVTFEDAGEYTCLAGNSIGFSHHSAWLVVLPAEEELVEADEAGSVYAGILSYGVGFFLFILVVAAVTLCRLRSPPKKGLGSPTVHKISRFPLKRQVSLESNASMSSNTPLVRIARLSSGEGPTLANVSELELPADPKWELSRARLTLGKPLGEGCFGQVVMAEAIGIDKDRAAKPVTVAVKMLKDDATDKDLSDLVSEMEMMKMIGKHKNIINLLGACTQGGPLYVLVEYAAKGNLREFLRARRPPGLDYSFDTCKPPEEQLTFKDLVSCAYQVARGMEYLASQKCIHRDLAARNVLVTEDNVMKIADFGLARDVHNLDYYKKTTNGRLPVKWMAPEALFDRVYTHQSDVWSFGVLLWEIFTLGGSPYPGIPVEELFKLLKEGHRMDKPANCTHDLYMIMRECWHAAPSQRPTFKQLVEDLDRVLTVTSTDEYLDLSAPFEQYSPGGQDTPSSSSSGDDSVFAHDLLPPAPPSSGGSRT

Fer (mouse) = test: as above
Fes = Fes (UniProt P07332); test: as above
Fes, sequence (P07332 whole entry, looked up): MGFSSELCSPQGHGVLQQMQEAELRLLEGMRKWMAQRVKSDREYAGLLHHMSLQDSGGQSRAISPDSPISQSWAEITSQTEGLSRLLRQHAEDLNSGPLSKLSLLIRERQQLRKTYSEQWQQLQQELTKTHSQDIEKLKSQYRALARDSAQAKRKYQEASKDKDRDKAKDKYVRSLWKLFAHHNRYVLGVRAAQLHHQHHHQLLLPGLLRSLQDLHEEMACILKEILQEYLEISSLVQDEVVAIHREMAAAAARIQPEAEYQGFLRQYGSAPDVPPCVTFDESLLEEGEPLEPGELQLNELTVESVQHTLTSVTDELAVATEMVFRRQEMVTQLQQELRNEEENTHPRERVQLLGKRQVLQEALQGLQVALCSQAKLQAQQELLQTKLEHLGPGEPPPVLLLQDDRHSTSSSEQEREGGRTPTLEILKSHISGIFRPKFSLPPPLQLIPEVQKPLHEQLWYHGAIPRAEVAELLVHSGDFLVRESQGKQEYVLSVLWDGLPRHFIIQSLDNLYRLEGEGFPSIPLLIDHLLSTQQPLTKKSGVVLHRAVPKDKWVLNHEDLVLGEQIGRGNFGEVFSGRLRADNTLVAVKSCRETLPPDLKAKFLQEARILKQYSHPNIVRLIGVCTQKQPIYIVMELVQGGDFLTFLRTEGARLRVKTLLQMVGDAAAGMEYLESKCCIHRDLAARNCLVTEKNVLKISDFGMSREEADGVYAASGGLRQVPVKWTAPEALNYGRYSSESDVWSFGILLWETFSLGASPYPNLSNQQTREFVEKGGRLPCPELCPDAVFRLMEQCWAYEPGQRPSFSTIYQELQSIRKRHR

Fyn = Fyn (UniProt P06241); test: as above
Hck = Hck (UniProt P08631); test: as above
Jak2 = Jak2 (UniProt O60674); test: as above
Jak2, sequence (O60674 whole entry, looked up): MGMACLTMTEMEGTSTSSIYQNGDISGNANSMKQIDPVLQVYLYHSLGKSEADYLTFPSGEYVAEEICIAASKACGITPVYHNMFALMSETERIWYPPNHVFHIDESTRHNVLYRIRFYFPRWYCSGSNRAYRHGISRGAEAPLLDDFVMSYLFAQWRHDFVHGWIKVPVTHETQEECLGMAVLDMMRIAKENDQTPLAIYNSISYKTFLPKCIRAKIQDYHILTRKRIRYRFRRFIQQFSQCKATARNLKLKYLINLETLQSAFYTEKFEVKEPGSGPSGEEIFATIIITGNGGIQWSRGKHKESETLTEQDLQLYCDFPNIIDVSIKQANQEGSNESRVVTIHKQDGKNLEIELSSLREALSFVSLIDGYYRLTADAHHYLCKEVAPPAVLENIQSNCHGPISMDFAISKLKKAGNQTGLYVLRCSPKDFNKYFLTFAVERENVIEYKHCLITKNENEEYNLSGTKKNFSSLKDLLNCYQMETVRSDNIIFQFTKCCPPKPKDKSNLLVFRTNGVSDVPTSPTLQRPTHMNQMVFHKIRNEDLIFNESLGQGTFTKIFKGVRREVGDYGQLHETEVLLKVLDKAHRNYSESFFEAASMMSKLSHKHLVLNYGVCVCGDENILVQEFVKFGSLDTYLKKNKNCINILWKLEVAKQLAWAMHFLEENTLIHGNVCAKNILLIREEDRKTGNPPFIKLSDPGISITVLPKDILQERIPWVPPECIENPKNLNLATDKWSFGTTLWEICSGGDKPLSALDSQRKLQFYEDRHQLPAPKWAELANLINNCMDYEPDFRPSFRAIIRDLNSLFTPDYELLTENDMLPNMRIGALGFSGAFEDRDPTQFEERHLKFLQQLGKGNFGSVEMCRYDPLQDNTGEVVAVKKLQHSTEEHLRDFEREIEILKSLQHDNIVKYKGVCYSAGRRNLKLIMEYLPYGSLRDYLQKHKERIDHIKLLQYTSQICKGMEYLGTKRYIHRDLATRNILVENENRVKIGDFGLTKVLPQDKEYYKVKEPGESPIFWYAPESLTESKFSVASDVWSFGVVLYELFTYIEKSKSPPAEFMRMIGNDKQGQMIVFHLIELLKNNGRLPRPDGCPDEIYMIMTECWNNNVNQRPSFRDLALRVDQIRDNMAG

MERTK = MERTK (UniProt Q12866); test: as above
c-Abl (mouse) = test: as above
c-Src = test: as above
Grb2 SH2 = Grb2 SH2 (UniProt P62993); test: SH2 binding enrichment of the phosphorylated peptide, bacterial display (enrichment ratio); higher = better substrate or ligand; peptides without Tyr show the background
Grb2 SH2, sequence (P62993 whole entry, looked up): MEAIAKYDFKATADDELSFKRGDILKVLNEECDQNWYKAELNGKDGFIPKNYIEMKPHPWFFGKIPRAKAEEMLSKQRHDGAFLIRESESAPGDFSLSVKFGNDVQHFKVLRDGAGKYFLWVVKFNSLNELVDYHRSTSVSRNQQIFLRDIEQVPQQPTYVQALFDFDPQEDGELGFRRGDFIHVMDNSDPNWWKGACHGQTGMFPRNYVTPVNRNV

SHP2-C SH2 = test: as above
c-Src SH2 = test: as above
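For SH2 binding enrichment of the phosphorylated peptide, bacterial display in this document: peptide library displayed on the E. coli surface as eCPX fusions, selected cells deep-sequenced, score is each peptide's frequency after selection divided by its frequency in the input.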
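For phosphorylation enrichment, bacterial display in this document: 11-residue human phosphosite peptides and single-mutation variants displayed on the E. coli surface, counted by deep sequencing, each peptide's frequency after selection divided by its frequency in the unselected input library; frequency after pTyr selection over input frequency; kinase dosed for 20-30% of maximal phosphorylation in three min.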

FGFR1, sequence (P11362 whole entry, looked up): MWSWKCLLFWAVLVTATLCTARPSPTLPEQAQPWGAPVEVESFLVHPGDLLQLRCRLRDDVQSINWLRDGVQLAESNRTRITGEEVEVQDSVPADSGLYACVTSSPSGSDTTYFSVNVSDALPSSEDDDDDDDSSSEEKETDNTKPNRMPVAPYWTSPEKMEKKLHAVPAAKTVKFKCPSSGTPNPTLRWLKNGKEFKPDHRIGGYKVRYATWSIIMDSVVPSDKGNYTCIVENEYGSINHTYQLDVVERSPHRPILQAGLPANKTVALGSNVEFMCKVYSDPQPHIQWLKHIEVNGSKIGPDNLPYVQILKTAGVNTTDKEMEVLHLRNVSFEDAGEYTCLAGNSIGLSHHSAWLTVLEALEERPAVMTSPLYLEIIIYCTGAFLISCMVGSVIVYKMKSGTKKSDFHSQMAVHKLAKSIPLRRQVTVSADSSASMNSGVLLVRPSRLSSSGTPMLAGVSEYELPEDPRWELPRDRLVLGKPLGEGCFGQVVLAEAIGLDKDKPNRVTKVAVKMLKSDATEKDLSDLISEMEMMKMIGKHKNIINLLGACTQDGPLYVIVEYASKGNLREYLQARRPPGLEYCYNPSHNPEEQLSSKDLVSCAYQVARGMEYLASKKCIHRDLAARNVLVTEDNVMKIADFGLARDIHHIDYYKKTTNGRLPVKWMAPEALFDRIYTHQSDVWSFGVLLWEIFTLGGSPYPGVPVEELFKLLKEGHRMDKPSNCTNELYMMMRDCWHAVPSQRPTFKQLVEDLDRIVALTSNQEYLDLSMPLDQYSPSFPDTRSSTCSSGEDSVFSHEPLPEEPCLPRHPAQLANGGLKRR
EPHB1, sequence (P54762 whole entry, looked up): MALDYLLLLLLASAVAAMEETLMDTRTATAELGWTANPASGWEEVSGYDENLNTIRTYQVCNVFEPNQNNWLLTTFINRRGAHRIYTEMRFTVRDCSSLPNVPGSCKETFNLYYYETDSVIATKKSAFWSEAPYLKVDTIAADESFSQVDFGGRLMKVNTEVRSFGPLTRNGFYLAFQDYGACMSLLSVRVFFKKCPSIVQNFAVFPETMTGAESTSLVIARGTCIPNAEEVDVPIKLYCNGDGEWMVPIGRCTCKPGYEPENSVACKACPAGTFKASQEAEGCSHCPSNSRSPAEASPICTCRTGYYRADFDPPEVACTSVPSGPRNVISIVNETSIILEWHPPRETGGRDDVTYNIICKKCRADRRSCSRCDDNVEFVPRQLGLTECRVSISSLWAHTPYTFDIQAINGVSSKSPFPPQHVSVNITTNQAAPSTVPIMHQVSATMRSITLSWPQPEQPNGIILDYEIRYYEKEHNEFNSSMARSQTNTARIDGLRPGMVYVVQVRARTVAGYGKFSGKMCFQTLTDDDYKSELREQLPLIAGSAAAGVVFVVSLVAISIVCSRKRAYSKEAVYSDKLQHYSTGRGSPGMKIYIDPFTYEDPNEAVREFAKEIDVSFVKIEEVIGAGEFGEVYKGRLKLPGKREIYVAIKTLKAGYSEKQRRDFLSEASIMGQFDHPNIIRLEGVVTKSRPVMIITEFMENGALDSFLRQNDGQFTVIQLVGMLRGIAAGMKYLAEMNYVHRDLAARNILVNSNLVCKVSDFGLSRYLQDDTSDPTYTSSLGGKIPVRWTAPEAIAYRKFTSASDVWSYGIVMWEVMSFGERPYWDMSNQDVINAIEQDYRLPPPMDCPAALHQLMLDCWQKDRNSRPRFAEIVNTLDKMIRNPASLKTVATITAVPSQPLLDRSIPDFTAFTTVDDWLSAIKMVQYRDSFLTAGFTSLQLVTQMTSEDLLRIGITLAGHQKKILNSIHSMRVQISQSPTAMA

Row | Sequence | phosphorylation enrichment (AncSZ) | phosphorylation enrichment (EPHB1) | phosphorylation enrichment (EPHB2) | phosphorylation enrichment (FGFR1) | phosphorylation enrichment (FGFR3) | phosphorylation enrichment (Fer (mouse)) | phosphorylation enrichment (Fes) | phosphorylation enrichment (Fyn) | phosphorylation enrichment (Hck) | phosphorylation enrichment (Jak2) | phosphorylation enrichment (MERTK) | phosphorylation enrichment (c-Abl (mouse)) | phosphorylation enrichment (c-Src) | SH2 binding enrichment (Grb2 SH2) | SH2 binding enrichment (SHP2-C SH2) | SH2 binding enrichment (c-Src SH2)
1 | VNFDYYTVNLG [GFPT1_Y367_D366Y] | 5.81 | 6.6 | 5.41 | 15.6 | 14.5 | 6.01 | 1.25 | 5.83 | 4.22 | 9.69 | 4.02 | 1.36 | 4.7 | 1.04 | 1.46 | 0.741
2 | VNKIFYPDFIV [LIG3_Y768_YF] | 1 | 0.465 | 0.928 | 0.49 | 0.584 | 0.5 | 1.08 | 0.464 | 0.529 | 0.811 | 0.518 | 0.612 | 0.432 | 1.14 | 0.919 | 0.498
3 | VNNTVYGIDAM [EIF3J_Y143_A141T] | 0.724 | 0.479 | 0.429 | 0.512 | 0.461 | 0.423 | 0.698 | 0.907 | 0.626 | 0.696 | 0.349 | 0.616 | 0.596 | 0.984 | 0.533 | 0.564
4 | VNQSGYTLIRK [ATP6V0A2_Y688_R685Q] | 0.572 | 0.42 | 0.478 | 0.452 | 0.465 | 0.401 | 0.563 | 0.387 | 0.476 | 0.538 | 0.433 | 0.391 | 0.418 | 0.861 | 9.3 | 8.52
5 | VPANRYDLLRL [FARSB_Y72_C76R] | 0.519 | 0.424 | 0.403 | 0.414 | 0.58 | 0.452 | 0.65 | 0.39 | 0.429 | 0.54 | 0.451 | 0.498 | 0.393 | 0.765 | 0.648 | 3.31
6 | VPLLEYFWDIF [CDAN1_Y712_R714W_YF] | 1.02 | 0.455 | 0.469 | 3.61 | 2.73 | 0.439 | 1.16 | 0.449 | 0.432 | 1.12 | 0.413 | 0.666 | 0.411 | 1.8 | 2.12 | 1.68
7 | VPLLEYYRDIF [CDAN1_Y712] | 0.998 | 0.564 | 0.647 | 3.63 | 2.83 | 0.544 | 1.24 | 0.444 | 0.508 | 2.64 | 0.441 | 0.728 | 0.553 | 0.911 | 0.968 | 1.05
8 | VREIRYQGGNR [VWF_Y1570] | 0.597 | 0.329 | 0.511 | 0.378 | 0.382 | 0.402 | 0.653 | 0.421 | 0.42 | 0.968 | 0.522 | 0.615 | 0.495 | 0.539 | 0.476 | 0.391
9 | VRVQLYDPDFM [CYP4A22_Y100_Y104F] | 1.06 | 0.717 | 0.631 | 0.45 | 0.683 | 0.579 | 1.17 | 0.419 | 0.561 | 1.07 | 1.08 | 0.734 | 0.579 | 0.972 | 0.67 | 0.536
10 | VTAALYGCLFE [BTD_Y536_R538C_YF] | 1.3 | 0.916 | 1.03 | 0.602 | 0.998 | 1.1 | 1.55 | 5.63 | 3.97 | 1.13 | 1.54 | 1.02 | 4.03 | 0.85 | 0.606 | 0.52
11 | VTAALYGRLYE [BTD_Y536] | 0.883 | 1.06 | 1.43 | 0.498 | 0.724 | 1.31 | 1.04 | 5.26 | 5.15 | 0.904 | 2.68 | 0.888 | 4.81 | 0.899 | 0.838 | 1.12
12 | VTQEPYELFCE [CBL_Y368_Q367P_YF] | 1.58 | 0.74 | 0.687 | 0.649 | 0.938 | 1.15 | 1.32 | 0.793 | 0.569 | 0.998 | 0.592 | 0.817 | 1.19 | 1.01 | 0.944 | 0.719
13 | VTRDEYPSNPM [CEMIP2_Y1015_I1010V] | 0.6 | 0.411 | 0.417 | 0.323 | 0.491 | 0.339 | 0.751 | 0.356 | 0.397 | 0.696 | 0.487 | 0.523 | 0.394 | 0.67 | 0.783 | 0.564
14 | VVHGSYDEIEG [SEC24A_Y263_S261G] | 0.914 | 0.424 | 0.387 | 0.395 | 0.591 | 0.594 | 0.9 | 0.395 | 0.469 | 0.887 | 0.431 | 1.07 | 0.536 | 0.801 | 0.604 | 22.5
15 | VVLVSYVPFSQ [SH2B1_Y624_S627F] | 1.29 | 0.716 | 0.702 | 0.526 | 0.771 | 0.501 | 1.37 | 0.55 | 0.648 | 1.38 | 0.496 | 0.938 | 0.833 | 1.28 | 1.03 | 0.906
16 | VYSTDCYRVGG [NTRK2_Y706_Y706C] | 1.07 | 2.13 | 1.01 | 0.787 | 0.769 | 0.824 | 1.16 | 2.56 | 1.38 | 0.972 | 7.43 | 0.808 | 2.23 | 0.903 | 0.538 | 0.601
17 | WIPIQCPIISE [NOG_Y222_Y222C] | 1.31 | 0.818 | 0.591 | 0.54 | 1.04 | 0.54 | 1.41 | 0.551 | 0.563 | 1.12 | 0.373 | 0.836 | 0.433 | 0.871 | 0.885 | 0.513

Row | Sequence | phosphorylation enrichment (AncSZ) | phosphorylation enrichment (EPHB1) | phosphorylation enrichment (EPHB2) | phosphorylation enrichment (FGFR1) | phosphorylation enrichment (FGFR3) | phosphorylation enrichment (Fer (mouse)) | phosphorylation enrichment (Fes) | phosphorylation enrichment (Fyn) | phosphorylation enrichment (Hck) | phosphorylation enrichment (Jak2) | phosphorylation enrichment (MERTK) | phosphorylation enrichment (c-Abl (mouse)) | phosphorylation enrichment (c-Src) | SH2 binding enrichment (Grb2 SH2) | SH2 binding enrichment (SHP2-C SH2) | SH2 binding enrichment (c-Src SH2)
18 | WISNRYPDFSS [PRPH2_Y184_L185P] | 0.798 | 0.434 | 0.552 | 0.533 | 0.685 | 0.484 | 0.953 | 0.404 | 0.497 | 0.841 | 0.487 | 0.66 | 0.52 | 0.964 | 0.71 | 0.5
19 | WLQKLYNNFVN [MYO5C_Y526] | 1.25 | 0.528 | 0.57 | 0.459 | 0.774 | 0.483 | 1.4 | 0.472 | 0.655 | 1 | 0.429 | 0.874 | 0.501 | 1.31 | 1.18 | 1.28
20 | WRRLIYRCQVG [NR2E3_Y81_R76W] | 0.906 | 0.389 | 0.486 | 0.487 | 0.515 | 0.489 | 0.784 | 0.452 | 0.424 | 0.837 | 0.484 | 0.65 | 0.494 | 0.939 | 0.561 | 0.366
21 | YASALYGQRRS [FGF11_Y162_R163G] | 0.633 | 0.391 | 0.384 | 0.371 | 0.408 | 0.411 | 0.668 | 0.659 | 1.54 | 0.604 | 0.505 | 0.978 | 0.784 | 0.675 | 0.424 | 0.553
22 | YCIDHYLGKEM [G6PD_Y202_R198C] | 0.892 | 0.499 | 0.567 | 0.567 | 0.558 | 0.952 | 0.827 | 0.503 | 0.694 | 0.75 | 0.64 | 0.611 | 0.606 | 0.981 | 1.05 | 1.01
23 | YCRITYDIFPF [INTS13_Y67_M66T] | 1.8 | 3.8 | 3.79 | 1.28 | 1.38 | 0.785 | 1.59 | 1.57 | 2.72 | 1.45 | 2.83 | 1.18 | 2.57 | 0.847 | 0.791 | 1.42
24 | YEPDAYDDLDQ [ELP5_Y302] | 1.26 | 0.542 | 0.523 | 0.56 | 0.842 | 0.663 | 1.19 | 0.496 | 0.548 | 0.919 | 0.403 | 0.769 | 0.482 | 0.767 | 0.764 | 1.07
25 | YETVKYFNNER [ABCB7_Y345] | 0.881 | 0.792 | 0.611 | 1.95 | 1.32 | 9.57 | 0.869 | 1.37 | 1.83 | 0.683 | 0.844 | 0.64 | 1.14 | 0.868 | 1.13 | 9.64
26 | YFRDGHMPRQY [GSS_Y270_Y270H] | 0.454 | 0.458 | 0.462 | 0.531 | 0.583 | 0.436 | 0.584 | 0.443 | 0.45 | 1.03 | 0.445 | 0.541 | 0.401 | 1.04 | 0.821 | 0.51
27 | YGGLRYGYGGL [KRTAP20-2_Y13_V17G] | 0.645 | 0.418 | 0.427 | 0.407 | 0.536 | 0.407 | 0.839 | 0.959 | 1.42 | 0.671 | 0.381 | 0.559 | 0.76 | 0.955 | 1.11 | 0.725
28 | YGGRDYSLDEF [MYOF_Y1705] | 0.981 | 0.594 | 0.609 | 0.582 | 0.697 | 0.618 | 1.1 | 0.657 | 0.603 | 0.945 | 0.454 | 0.809 | 0.594 | 0.765 | 0.472 | 0.947
29 | YGSGNYNVFGN [HNRNPA2B1_Y300_D302V] | 0.737 | 0.666 | 0.797 | 0.539 | 0.63 | 0.561 | 0.828 | 0.76 | 0.882 | 0.683 | 0.639 | 0.49 | 0.653 | 0.813 | 0.673 | 0.682
30 | YLELNYKEDEY [MME_Y502] | 1.78 | 0.786 | 0.478 | 4.36 | 3.65 | 0.55 | 1.43 | 0.63 | 1.21 | 1.3 | 0.923 | 0.929 | 0.88 | 0.802 | 0.71 | 4.38
31 | YLNSSYINIST [IL23R_Y178_T175N] | 0.875 | 0.525 | 0.453 | 2.69 | 2.14 | 0.439 | 0.799 | 0.475 | 0.591 | 1.23 | 0.606 | 0.574 | 0.436 | 24.6 | 2.57 | 4.78
32 | YMKEPYIQSRF [HIPK4_Y175_V171M] | 0.622 | 0.364 | 0.392 | 0.611 | 0.623 | 0.488 | 0.703 | 0.461 | 0.36 | 0.855 | 0.659 | 0.632 | 0.563 | 1.12 | 0.832 | 0.865
33 | YNDSAYNQQLI [ZPLD1_Y198_T197A] | 0.987 | 0.455 | 0.527 | 0.499 | 0.68 | 0.46 | 0.93 | 0.49 | 0.48 | 0.696 | 0.388 | 0.634 | 0.418 | 0.833 | 0.552 | 0.388
